Experimental data from publication PMC12004702, “Characterization of a rhodopsin-phosphodiesterase from Choanoeca flexa to be combined with rhodopsin-cyclases for bidirectional optogenetic cGMP control” (The Journal of Biological Chemistry, 2025).

Substrate: [H][C@@]12COP(=O)(O)O[C@@]1([H])[C@@H](O)[C@H](n1cnc3c(=O)[nH]c(N)nc31)O2
Test: HPLC initial-rate assay, Michaelis-Menten fit, membrane fraction
Type: biochemical, Choanoeca flexa
Conditions: 5 mM MgCl2, 20 mM Hepes, 100 mM NaCl, 5 mM DTT, 5% glycerol
[1] = light-adapted state (470 nm, 30 μW/mm^2)

B1: CfRhPDE1 (Choanoeca flexa) (protein)
chain: MSKAMTMREEAALELKRKGKVKNVAIATTSEVQKQGFFMMAVWIATVSILWLFSNPEASEAVFEKHGQLRVMYGATSVAFAFATALDVLAYVNAVSDEKRVLSGVLAYVDGAACLSYAAMASLPLYFILDSHNGNPIWLMRYAEWLITCPTLLYWCGLATRGERGAVADIATGDAMLLAGGALSSILPGWPSYFVFMGSVAAFVYVMTHMWGLFSKAMQPDFSPAPPLPRTALNLMRWEIVLSWTCFPMIEYSRRYFGLDYQTGEALNSIIDYAAKVGLAMIMVNCNLEQINAIKVEQMQSAMSGMVKVMRKTNARVELDGMDDDVKGWLLNEYAGDDGEDEVKVSSKSKRNQKSINPEEISASALFSWDFCSLDKSEEDLVGICIRVFRELKMIEVFDLDESKLRRFILGVRSRYNKNPFHNWKHAVMVLHTCYLFITQVAAEFCTDLEVLALLFAALCHDCDHNGVNNAFHINSRSDLALLYNDQSVLENHHCYSGFDVLYDKGNNFLDVLSEGDFKRFRSLVIDCILGTDMAHHASKLGKLEEINRLGGFSNLAENDEQRAFVMVTLLHTSDLYNPIKPFHITKKWANRLQREFNQQVEVESQMGLPSLPFMKGQGELALAKGEVGFITFVIRPWYVQLTNAFPKIDFLMDNIDTNLDMWKSIVESHE
notes: full-length, N-terminal Venus tag kept, no other change from WT; codon-optimized; membranes of ND7/23 cells; modelled as dimer
Km (darkness (dark-adapted state)): 4.4 ± 0.6 µM | kcat (darkness (dark-adapted state)): 2.0 ± 0.1 s⁻¹ | Km [1]: 1.9 ± 0.1 µM | kcat [1]: 4.7 ± 0.1 s⁻¹
